Data on one molecule can be found in patent publication US20220332804A1 (CSL INNOVATION, published 2022).

Assay in all cases: SPR, KD relative to WT C2;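 note: biacore SPR at 37 °C, anti-C2 mAbs captured on anti-human IgG chips with alanine or serine point mutants of C2 as analyte, KD from 1:1 fit compared with wild-type C2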
Background: In SPR one partner is held on a chip, and binding of the other changes the refractive index at the surface.

Assay [1] has as its target T1, human C2 S469A (human, UniProt P06681 21-752).
T1 sequence: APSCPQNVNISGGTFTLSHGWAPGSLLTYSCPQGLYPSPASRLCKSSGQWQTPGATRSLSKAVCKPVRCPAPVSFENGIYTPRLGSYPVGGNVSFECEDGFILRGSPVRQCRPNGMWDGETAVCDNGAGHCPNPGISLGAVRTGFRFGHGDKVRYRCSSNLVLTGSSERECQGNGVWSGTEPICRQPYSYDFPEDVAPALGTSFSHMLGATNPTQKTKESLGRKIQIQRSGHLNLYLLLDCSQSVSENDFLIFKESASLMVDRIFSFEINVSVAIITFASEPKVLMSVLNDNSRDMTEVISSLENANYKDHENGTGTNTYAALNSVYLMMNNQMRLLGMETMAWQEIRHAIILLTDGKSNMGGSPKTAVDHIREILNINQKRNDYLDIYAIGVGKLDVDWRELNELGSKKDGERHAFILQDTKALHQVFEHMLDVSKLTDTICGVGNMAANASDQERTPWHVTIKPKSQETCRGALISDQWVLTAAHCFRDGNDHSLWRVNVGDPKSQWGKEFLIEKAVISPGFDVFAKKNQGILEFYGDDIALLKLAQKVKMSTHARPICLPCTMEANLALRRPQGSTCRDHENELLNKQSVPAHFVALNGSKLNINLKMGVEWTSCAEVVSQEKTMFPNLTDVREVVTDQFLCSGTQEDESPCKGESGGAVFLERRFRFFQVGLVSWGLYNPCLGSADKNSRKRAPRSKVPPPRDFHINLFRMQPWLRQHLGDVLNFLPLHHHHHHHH
Protocol: (§1) Surface plasmon resonance (SPR, Biacore) was used for all binding affinity analyses. In brief, goat anti-human IgG was directly immobilised onto the carboxymethyl dextran surface of CM5 sensorchips to approximately 12,000 RU using standard NHS/EDC chemistry at pH 5. The immobilised antibody surface was pre-conditioned with ten injections of polyclonal human IgG (Privigen 60 s) prepared at 1 μg/mL. Ligands (anti-C2 mAbs) were captured at the beginning of each cycle as described below. An adjacent spot or flow cell in which only Polyclonal IgG was capture was used as a reference surface. The goat anti-human IgG Fc antibody surface was regenerate in 100 mM H3PO4, injected for 45 seconds at the end of each cycle. Experiments were performed at 37° C. and the flow rate of each experiment was kept constant at 30 μL/min.
(§2) Sensogram data was double-referenced against a reference anti-IgG surface (i.e. minus anti-C2 mAb) and blank buffer injections obtained within each experiment. The binding data was fit to 1:1 (kinetic or steady-state) model using local Rmax and null refraction index (RI=0) when appropriate. Buffers and solutions were filtered (0.22 μm) prior to use.

In assay [2] the target is T2, human C2 A326S (human, UniProt P06681 21-752).
T2 sequence: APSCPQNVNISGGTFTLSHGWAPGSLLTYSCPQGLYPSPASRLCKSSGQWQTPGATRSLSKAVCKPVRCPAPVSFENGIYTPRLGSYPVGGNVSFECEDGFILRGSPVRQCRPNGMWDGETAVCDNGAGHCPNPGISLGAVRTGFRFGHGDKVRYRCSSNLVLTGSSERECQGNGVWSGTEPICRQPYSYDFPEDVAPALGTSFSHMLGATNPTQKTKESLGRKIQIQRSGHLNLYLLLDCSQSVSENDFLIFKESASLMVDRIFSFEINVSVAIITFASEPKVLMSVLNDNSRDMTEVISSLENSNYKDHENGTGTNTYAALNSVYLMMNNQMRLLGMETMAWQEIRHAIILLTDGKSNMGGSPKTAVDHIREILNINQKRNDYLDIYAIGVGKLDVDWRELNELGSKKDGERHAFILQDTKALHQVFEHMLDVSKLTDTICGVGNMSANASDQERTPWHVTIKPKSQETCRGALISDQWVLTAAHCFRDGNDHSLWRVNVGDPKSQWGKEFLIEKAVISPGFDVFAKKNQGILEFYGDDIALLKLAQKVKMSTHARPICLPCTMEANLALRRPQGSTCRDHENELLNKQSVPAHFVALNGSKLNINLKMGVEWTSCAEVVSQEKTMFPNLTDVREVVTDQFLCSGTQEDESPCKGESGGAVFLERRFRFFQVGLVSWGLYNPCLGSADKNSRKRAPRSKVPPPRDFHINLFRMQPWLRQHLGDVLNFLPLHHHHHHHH
Protocol: as §1, §2

Assay [3] addresses T3, human C2 L279A (human, UniProt P06681 21-752).
T3 sequence: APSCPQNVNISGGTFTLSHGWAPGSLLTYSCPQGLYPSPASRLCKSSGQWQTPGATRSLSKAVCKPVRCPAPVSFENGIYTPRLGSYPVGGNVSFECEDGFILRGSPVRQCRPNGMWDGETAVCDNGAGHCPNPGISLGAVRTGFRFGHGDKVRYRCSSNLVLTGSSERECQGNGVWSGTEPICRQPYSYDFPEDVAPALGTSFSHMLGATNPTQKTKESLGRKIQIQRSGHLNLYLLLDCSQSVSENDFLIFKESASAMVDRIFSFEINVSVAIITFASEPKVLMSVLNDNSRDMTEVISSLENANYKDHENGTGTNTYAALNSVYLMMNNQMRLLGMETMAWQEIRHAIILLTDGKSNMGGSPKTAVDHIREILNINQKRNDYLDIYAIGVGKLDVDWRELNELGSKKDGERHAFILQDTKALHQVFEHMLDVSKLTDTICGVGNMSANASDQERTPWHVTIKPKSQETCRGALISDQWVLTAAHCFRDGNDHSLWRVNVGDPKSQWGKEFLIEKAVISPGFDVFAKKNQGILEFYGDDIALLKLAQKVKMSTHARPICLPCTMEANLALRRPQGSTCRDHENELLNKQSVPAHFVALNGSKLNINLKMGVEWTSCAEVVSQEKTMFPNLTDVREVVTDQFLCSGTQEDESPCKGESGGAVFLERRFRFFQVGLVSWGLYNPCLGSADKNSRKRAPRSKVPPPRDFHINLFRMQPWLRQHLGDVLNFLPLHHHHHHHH
Protocol: as §1, §2

Assay [4] concerns the target T4, human C2 N327A (human, UniProt P06681 21-752).
T4 sequence: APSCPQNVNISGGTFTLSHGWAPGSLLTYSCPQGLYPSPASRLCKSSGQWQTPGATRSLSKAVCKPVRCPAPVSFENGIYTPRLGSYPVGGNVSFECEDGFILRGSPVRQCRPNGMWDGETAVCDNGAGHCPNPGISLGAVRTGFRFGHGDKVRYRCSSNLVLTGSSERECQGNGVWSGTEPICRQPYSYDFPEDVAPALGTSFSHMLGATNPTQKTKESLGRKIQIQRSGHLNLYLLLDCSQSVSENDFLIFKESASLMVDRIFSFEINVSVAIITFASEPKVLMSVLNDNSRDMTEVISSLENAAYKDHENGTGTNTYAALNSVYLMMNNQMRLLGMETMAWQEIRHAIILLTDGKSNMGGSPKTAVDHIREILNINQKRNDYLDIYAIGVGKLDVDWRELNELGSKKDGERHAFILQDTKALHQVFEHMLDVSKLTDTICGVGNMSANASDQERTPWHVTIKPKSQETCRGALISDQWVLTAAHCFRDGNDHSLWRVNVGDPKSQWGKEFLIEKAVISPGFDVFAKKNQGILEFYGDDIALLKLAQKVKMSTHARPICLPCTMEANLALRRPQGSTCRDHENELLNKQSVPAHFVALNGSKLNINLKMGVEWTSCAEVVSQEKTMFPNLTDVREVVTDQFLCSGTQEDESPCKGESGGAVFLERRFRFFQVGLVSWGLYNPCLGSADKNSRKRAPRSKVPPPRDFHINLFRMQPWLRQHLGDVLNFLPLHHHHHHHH
Protocol: as §1, §2

B1: RF16-242 (antibody, human IgG4 S228P, lambda, V domains shown)
VH: EVQLLQSGAEVKKPGESLKISCKGSGYSFTSYWIGWVRQMPGKGLEWMGIIYPGDSDTRYSPSFQGQVTISADKSISTAYLQWSSLKASDTAMYYCARRGHYGDYFDYWGQGTLVTVSS
VL: SYELTQPPSVSVSPGQTARITCSGDALPKKYAYWYHQKSGQAPVLVIYEDRRRPSEIPERFSGSSSGTMATLTITGAQVEDEGVYFCYSRDRAGNQRVFGGGTQLTVLG
notes: pH-dependent anti-C2 antibody from a phage display library
Regarding B1, the Fold diff in assay [1] worked out at 3 fold; in assay [2], 1 fold; in assay [3], 7 fold; in assay [4], 5 fold.
